Experimental data published in US20250276077A1 (IMMUNOME, published 2025).

Columns and labels:
[1] = molecular target: T1, Human EphA2 (ephrin receptor A2) on cells (human, UniProt P29317 25-976); assay: cell-based or functional assay
[2] = molecular target: T1, Human EphA2 (ephrin receptor A2) on …; assay: cell-based or functional assay; remark: listed apart in the source
[3] = molecular target: T1, Human EphA2 (ephrin receptor A2) on …; assay: cell-based or functional assay; remark: listed apart in the source
[4] = molecular target: T2, C-terminally His-tagged hEphA2-FN2 (Thr437-Asn534+His tag) (human, UniProt P29317 437-534); assay: SPR Biacore T200, 25 C; mIgG2a captured by anti-mouse Fc, hEphA2-FN2-His analyte; steady-state monovalent KD
T2 construct: also called FN2 domain of hEphA2
Description: Binding of antibodies to the FN2 domain of hEphA2 was measured using the Biacore® T200 SPR system at 25° C. using HBS-EP+ buffer (0.01 M HEPES pH 7.4, 0.15 M NaCl, 3 mM EDTA, 0.005% v/v Surfactant P20). Antibodies in mIgG2a format were captured at levels between 475-715 RU via an anti-mouse Fc antibody immobilized to a CM5 chip. Binding was assessed using a titration of C-terminally His-tagged hEphA2-FN2 (Thr437-Asn534+His tag) associated for 30 s or 75 s at 30 μL/min. Data was double-reference subtracted using both a surface without captured antibody and from injections of HBS-EP+ buffer. The equilibrium response was measured at 4 seconds before the end of association with a window of 5 seconds and fit using the Biacore T200 Evaluation Software 3.1 with the Steady State Affinity Model.

Human EphA2 [5] = molecular target: T3, Human EphA2 (human, UniProt P29317 24-976); assay: IHC/IF on frozen human tumor tissue: ANC
T3 construct: Endogenous EphA2 in fresh frozen human tumor tissue sections, not a recombinant protein; also called ephrin receptor A2; hEphA2

Human EphA2 [6] = molecular target: T3, Human EphA2; assay: IHC/IF on frozen human tumor tissue: CRC
Human EphA2 [7] = molecular target: T3, Human EphA2; assay: IHC/IF on frozen human tumor tissue: ESO
Human EphA2 [8] = molecular target: T3, Human EphA2; assay: IHC/IF on frozen human tumor tissue: GAC
Human EphA2 [9] = molecular target: T3, Human EphA2; assay: IHC/IF on frozen human tumor tissue: HNC
Human EphA2 [10] = molecular target: T3, Human EphA2; assay: IHC/IF on frozen human tumor tissue: OVA
Human EphA2 [11] = molecular target: T3, Human EphA2; assay: IHC/IF on frozen human tumor tissue: STS
Human EphA2 [12] = molecular target: T3, Human EphA2; assay: IHC/IF on frozen human tumor tissue: URO
Human EphA2 [13] = molecular target: T3, Human EphA2; assay: IHC/IF on frozen human tumor tissue: MELA
Human EphA2 [14] = molecular target: T3, Human EphA2; assay: IHC/IF on frozen human tumor tissue: PANC
Human EphA2 [15] = molecular target: T3, Human EphA2; assay: IHC/IF on frozen human tumor tissue: PROC
Human EphA2 [16] = molecular target: T3, Human EphA2; assay: IHC/IF on frozen human tumor tissue: TNBC
Human EphA2 [17] = molecular target: T3, Human EphA2; assay: IHC/IF on frozen human tumor tissue: ER+ BRC
Human EphA2 [18] = molecular target: T3, Human EphA2; assay: IHC/IF on frozen human tumor tissue: NSCLC-SQ
Human EphA2 [19] = molecular target: T3, Human EphA2; assay: IHC/IF on frozen human tumor tissue: Her2+ BRC
Human EphA2 [20] = molecular target: T3, Human EphA2; assay: IHC/IF on frozen human tumor tissue: NSCLC-Adeno
Human EphA2 [21] = molecular target: T3, Human EphA2; assay: IHC/IF on frozen human tumor tissue: RCC-papillary
Human EphA2 [22] = molecular target: T3, Human EphA2; assay: IHC/IF on frozen human tumor tissue: RCC-clear cell
Human EphA2 [23] = molecular target: T3, Human EphA2; assay: IHC/IF on frozen human tumor tissue: UCEC-papillary
Human EphA2 [24] = molecular target: T3, Human EphA2; assay: IHC/IF on frozen human tumor tissue: UCEC-clear cell
Human EphA2 [25] = molecular target: T3, Human EphA2; assay: IHC/IF on frozen human tumor tissue: UCEC-endometrioid

| IHC score (Human EphA2 [5]) | IHC score (Human EphA2 [6]) | IHC score (Human EphA2 [7]) | IHC score (Human EphA2 [8]) | IHC score (Human EphA2 [9]) | IHC score (Human EphA2 [10]) | IHC score (Human EphA2 [11]) | IHC score (Human EphA2 [12]) | IHC score (Human EphA2 [13]) | IHC score (Human EphA2 [14]) | IHC score (Human EphA2 [15]) | IHC score (Human EphA2 [16]) | IHC score (Human EphA2 [17]) | IHC score (Human EphA2 [18]) | IHC score (Human EphA2 [19]) | IHC score (Human EphA2 [20]) | IHC score (Human EphA2 [21]) | IHC score (Human EphA2 [22]) | IHC score (Human EphA2 [23]) | IHC score (Human EphA2 [24]) | Binder | also measured |
| --- | --- | --- | --- | --- | --- | --- | --- | --- | --- | --- | --- | --- | --- | --- | --- | --- | --- | --- | --- | --- | --- |
|  |  |  |  |  |  |  |  |  |  |  |  |  |  |  |  |  |  |  |  | AB-010357 (antibody, mouse IgG2a, V domains shown) VH: QVQLQQWGAGLLKPSETLSLTCAVYGGSFSDYYWSWIRQPPGKGLEWIGEINHRGSINYNNYNPSLKSRVTISVDTSKNQFSLKLSSVTAADTAVYYCAKPLRPHCTNGVCYSGDAFDIWGQGTMVTVAS VL: SYVLTQPPSVSVAPGQTARITCGGNNIGSKNVHWYQQKPGQAPVLVVYDDSDRPSGIPEQFSGSNSGNTATLTISRVEAGDEADYYCQVWDSSSDHVVFGGGTKLTVL | ADCC EC50 [1]: 11.6 nM; ADCC Fold-improved (against AB-008873) [1]: 3 fold; ADCC - EC50 (nM), Trial 1, A549 [2]: 12.3 nM; ADCC - EC50 (nM), Trial 2, A549 [2]: 9.6 nM; ADCC EC50 (nM), parent, A549 [3]: 10.9 nM |
|  |  |  |  |  |  |  |  |  |  |  |  |  |  |  |  |  |  |  |  | AB-010363 (mouse IgG2a format) (antibody, V domains shown, tested in mIgG2a format) VH: QVQLQQWGAGLLKPSETLSLTCAVYGGSFSGYYWSWIRQPPGKGLEWIGEINHRGSINYNNYNPSLKSRVTISVDTSKNQFSLKLSSVTAADTAVYYCAKPLRPHCTNGVCYSGDAFDIWGQGTMVTVAS VL: SYVLTQPPSVSVAPGQTARITCGGNNIGSKNVHWYQQKPGQAPVLVVYDDSDRPSGIPERFSGSNSGNTATLTISRVEAGDEADYYCQVWDSSSDHVVFGGGTKLTVL | Kd [4]: 1310 nM |
|  |  |  |  |  |  |  |  |  |  |  |  |  |  |  |  |  |  |  |  | AB-010361 (antibody, mouse IgG2a, V domains shown) VH: QVQLQQWGAGLLKPSETLSLTCAVYGGSFSGYYWSWIRQPPGKGLEWIGEINHRGSINYNNYNPSLKSRVTISVDTSKNQFSLKLSSVTAADTAVYYCAKPLRPHCTNGVCYSGDAFDIWGQGTMVTVAS VL: SYVLTQPPSVSVAPGQTARITCGGNNIGSKNVHWYQQKPGQAPVLVVYDDSDRPSGIPEQFSGSNSGNTATLTISRVEAGDEADYYCQVWDSSSDHVVFGGGTKLTVL | ADCC EC50 [1]: 3.1 nM; ADCC Fold-improved (against AB-008873) [1]: 11.2 fold; ADCC - EC50 (nM), Trial 1, A549 [2]: 4 nM; ADCC - EC50 (nM), Trial 2, A549 [2]: 2.2 nM; ADCC EC50 (nM), parent, A549 [3]: 3.1 nM |
|  |  |  |  |  |  |  |  |  |  |  |  |  |  |  |  |  |  |  |  | AB-010361 (mouse IgG2a format) (antibody, V domains shown, tested in mIgG2a format) VH: QVQLQQWGAGLLKPSETLSLTCAVYGGSFSGYYWSWIRQPPGKGLEWIGEINHRGSINYNNYNPSLKSRVTISVDTSKNQFSLKLSSVTAADTAVYYCAKPLRPHCTNGVCYSGDAFDIWGQGTMVTVAS VL: SYVLTQPPSVSVAPGQTARITCGGNNIGSKNVHWYQQKPGQAPVLVVYDDSDRPSGIPEQFSGSNSGNTATLTISRVEAGDEADYYCQVWDSSSDHVVFGGGTKLTVL | Kd [4]: 1110 nM |
| 2 | 1 | 2 | 2 | 2 | 2 | 2 | 1 | 2 | 1 | 1 | 1 | 1 | 1 | 2 | 2 | 1 | 1 | 2 | 1 | AB-009812 (antibody, mouse IgG2a, V domains shown, Made on a mouse IgG2a framework) VH: QVQLQQWGAGLLKPSETLSLTCAVYGGSFSDYYWSWIRQPPGKGLEWIGEVNHSGSINYNNYNPSLKSRVTISVDPSKNQFSLKLTSVTAADTAVYYCAKPLRPHCTNGVCYSGDAFDIWGQGTMVTVAS VL: SYVLTQPPSVSVAPGQTARITCGGNNIGSKNVHWYQQKPGQAPVLVVYDDSDRPSGIPEQFSGSNSGNTATLTISRVEAGDEADYYCQVWDSSSDHLVFGGGTKLTVL | IHC score (Human EphA2 [25]): 1 |
|  |  |  |  |  |  |  |  |  |  |  |  |  |  |  |  |  |  |  |  | AB-008873 (mouse IgG2a format) (antibody, V domains shown) VH: QVQLQQWGAGLLKPSETLSLTCAVYGGSFSDYYWSWIRQPPGKGLEWIGEVNHRGSINYNNYNPSLKSRVTISVDPSKNQFSLKLTSVTAADTAVYYCAKPLRPHCTNGVCYSGDAFDIWGQGTMVTVAS VL: SYVLTQPPSVSVAPGQTARITCGGNNIGSKNVHWYQQKPGQAPVLVVYDDSDRPSGIPEQFSGSNSGNTATLTISRVEAGDEADYYCQVWDSSSDHLVFGGGTKLTVLG | Kd [4]: 2260 nM |
| 2 | 1 | 2 | 2 | 2 | 2 | 2 | 1 | 2 | 1 | 1 | 1 | 1 | 1 | 2 | 2 | 1 | 1 | 2 | 2 | AB-009815 (antibody, mouse IgG2a, V domains shown, Made on a mouse IgG2a framework) VH: QVQLQQWGAGLLKPSETLSLTCAVYGGSFSDYYWSWIRQPPGKGLEWIGEVNHRGSINYNNYNPSLKSRVTISVDTSKNQFSLKLTSVTAADTAVYYCAKPLRPHCTNGVCYSGDAFDIWGQGTMVTVAS VL: SYVLTQPPSVSVAPGQTARITCGGNNIGSKNVHWYQQKPGQAPVLVVYDDSDRPSGIPEQFSGSNSGNTATLTISRVEAGDEADYYCQVWDSSSDHLVFGGGTKLTVL | IHC score (Human EphA2 [25]): 1 |
| 2 | 1 | 2 | 2 | 2 | 2 | 2 | 1 | 2 | 1 | 1 | 1 | 1 | 1 | 2 | 2 | 1 | 1 | 2 | 2 | AB-009816 (antibody, mouse IgG2a, V domains shown, Made on a mouse IgG2a framework) VH: QVQLQQWGAGLLKPSETLSLTCAVYGGSFSDYYWSWIRQPPGKGLEWIGEVNHRGSINYNNYNPSLKSRVTISVDASKNQFSLKLTSVTAADTAVYYCAKPLRPHCTNGVCYSGDAFDIWGQGTMVTVAS VL: SYVLTQPPSVSVAPGQTARITCGGNNIGSKNVHWYQQKPGQAPVLVVYDDSDRPSGIPEQFSGSNSGNTATLTISRVEAGDEADYYCQVWDSSSDHLVFGGGTKLTVL | IHC score (Human EphA2 [25]): 1 |
| 2 | 1 | 2 | 2 | 2 | 2 | 2 | 1 | 2 | 1 | 1 | 1 | 1 | 1 | 1 | 2 | 1 | 1 | 2 | 2 | AB-009813 (antibody, mouse IgG2a, V domains shown, Made on a mouse IgG2a framework) VH: QVQLQQWGAGLLKPSETLSLTCAVYGGSFSDYYWSWIRQPPGKGLEWIGEVNHAGSINYNNYNPSLKSRVTISVDPSKNQFSLKLTSVTAADTAVYYCAKPLRPHCTNGVCYSGDAFDIWGQGTMVTVAS VL: SYVLTQPPSVSVAPGQTARITCGGNNIGSKNVHWYQQKPGQAPVLVVYDDSDRPSGIPEQFSGSNSGNTATLTISRVEAGDEADYYCQVWDSSSDHLVFGGGTKLTVL | IHC score (Human EphA2 [25]): 1 |
